The data set in a line: soluble on expression in E. coli; label from the status in PepcDB or PDB records.
In the case of “MRRYFGTDGVRGEAGKPPLTPEFVLKLGQAAGAYFLAQEKRPVVLLAKDTRESSDLLEAALAAGLMSQGVRVEHLGVLPTPGVAHLTKALKATAGAVISASHNPYQDNGIKFFGPTGEKLPDGAEEEIERLLLEDHPTRGIGTVGDFREAERMYLDFLLAHAPDLTGLKVGLDLAHGATYRIGPKLFQKAGAEVMAFFNTPDGRNINRGCGSTHPEALSRFVVELGLDLGIAFDGDGDRVQFIDRKGRLFHGDHVLYLAALAFGEKGVVGTVMSNMALEVALKERGLAFHRAAVGDRYVLEKLKETGLALGGEPSGHVIFLRHHTTGDGLLTALLTLKALKALGGDLADWYEALPLYPQVLLNVRVSDKAKVMADPRLGEAVREAEARLGGRGRVNVRPSGTEPVVRVMVEAEEGAEEVARELAERVRALSQEAQAV”, the “soluble on expression in E. coli” value is recorded as “soluble”.
The same measure for “MRRYLMDYSQYNLEKTGYLKEDFRLFHINDQTKKDFSYHYHDFHKIIVFISGKVTYHIEGKAYHLKPRDILLVSQGAIHKPEIDPSVPYERYIFWIRDDLSCQELNTCFQKANDRSFNLVRADSALQERLKDLLPEIEQTLQNKHFGDTVLRNALFTQFMIYINRIFLRTSSSPDKKTYSSDTQ”: “not soluble”; for “MRSAVSKVEESIEVAVPVSTAYNQWTQFEEFPQFMGGVERIEQQTATLTHWVTKVGGVTREFDAEIVEQIPDEQVSWTTVGGDVHQAGVVTFHRLDDRRTKVMLQMDHDSKGVVDAVGDKLGVVKHQVSEDLKRFKSFIENRGLEHHHHHH”: “not soluble”; for “MRSLARGVTTNISKLIEARPKNTGQTVYLTHVKWVTGKSQLEHYFKRYGSIQSVNMFYDPDTGLHRGFASITFDSKDGANKAIEQRPHVIDGDRVDVEPYIPLISKNKKKDLML”: “not soluble”.
With “MRSLTHIAKIELPPVRRVTYVKHYSIQPANLEFNAEGTPVSRDFDDVYFSNDNGLEETRYVFLGGNQLEARFPEHPHPLFVVAESGFGTGLNFLTLWQAFDQFREAHPQAQLQRLHFISFEKFPLTRADLALAHQHWPELAPWAEQLQAQWPMPLPGCHRLLLDEGRVTLDLWFGDINELISQLDDSLNQKVDAWFLDGFAPAKNPDMWTQNLFNAMARLARPGGTLATFTSAGFVRRGLQEAGFTMQKRKGFGRKREMLCGVMEQTLPLPCSTPWFNRTGSSKREVAIIGGGIASALLSLALLRRGWQVTLYCADEAPALGASGNRQGALYPLLSKHDEALNRFFSNGFTFARRLYDSLPVKFDHDWCGVTQLGWDEKSQHKIAQMLSMDLPEELAVAVEANAVEQITGVTTNCSGITYPQGGWLCPAELTRNVLELAQQQGLQIYYQYQLQDLSRKDDCWLLTFAGDQQATHSVVVLANGHQISRFSQTSSLPVYSVAGQVSHIPTTPELAKLKQVLCYDGYLTPQNPANQHHCIGASYHRGSEETAYSEDNQQQNRQRLIDCFPHAQWAKTVDVSKKEARCGVRCATRDHLPMVGNVPDYEATLVEYASLAEQKDKAVSAPVFDDLFMFAALGSRGLCSAPLCAEILAAQMSDEPIPMDASTLAALNPNRLWVRKLLKGKAVKAG” the entry was “not soluble”.
As for “MRSQRVFTTIDTHTGGNPTRTLISGLPKLIGETMAEKMLHMKKEYDWIRKLLMNEPRGHDVMSGALLTDPCHPEADIGVIYIETGGYLPMCGHDTIGVCTALVESGLIPVVEPITSLKLDTPAGLVEVDIAVQDGKAKEVSFCNIPAFLLKNITVQVKDIGTIEADIAYGGNFYAIIDAKSVGLELIPENASTIIDKAIHIRNTINEKFEIIHPEYSFIRGLTHVEFYTDATHECAHVKNTVIVPPGGIDRSPCGTGTSAKLAVLYAQKEIKIGEEFIHESIVGSLFKGYVVNTTHVENIEAVITKITGSAWLMGMHKFFYNEMDPLKEGFLLIPPMEHETEDIKMAGDPNSLEHHHHHH”, the “soluble on expression in E. coli” value is “soluble”.
Turning to “MRSTEVGRVVEDFIVLPPTPKSKWKLSDFELLHKLGGGNYGDVHLASVKDCNFVCALKRLSIKKLADFDIATQLRREIEIAFNTRHKYLLRTYAYFFDETDIYLIMEPCSNGMLYTELNRVKCFAPPTAARYVAQLAEALLYLHQHHILHRDIKPENILLDHNNNIKLADFGWSVHDPDNRRKTSCGTPEYFPPEIVGRQAYDTSADLWCLGIFCYELLVGKTPFVGKDTDQICKNIHSMHFKIPENIPSEAKDLIANLLLRDGSRRLALHRVVNHQFLLKYYYLPNNLQPPTGKRPRLDAEPTAGKEN”, the “soluble on expression in E. coli” value is given as “not soluble”.
With “MRSTKVIHIVGCHAEGEVGDVIVGGVAPPPGETVWEQSRFIANDETLRNFVLNKPRGGVFRHVNLLVPPKDPRAQMGFIIMEPADTPPMSGSNSICVSTVLLDSGIIAMQEPVTHMVLEAPGGIIEVEAECRNGKAERISVRNVPSFADRLDAPLDVTGLGTIMVDTAYGGDSFVIVDAAQIGMKIEPGQARELAEIGVKITKAANEQLGFRHPERDWRHISFCQITEPVTREGDVLTGVNTVAIRPAKFDRSPTGTGCSARMAVLHAKGQMKAGERFIGKSVLGTEFHCRLDKVLELGGKPAISPIISGRAWVTGTSQLMLDPSDPFPHGYRLSDTWPRDELEHHHHHH” the entry was “soluble”; with “MRTLAVISAGLSTPSSTRQIADSISEAVTAAVSARGEALSVSTIELSELIPDLMTAMTTRVHTTKLEEITSALSASDGLVVATPVFKASYTGLFKMFFDILDTDALTGMPTIIAATAGSARHSLVLDYALRPLLSYMRAVVVPTGVFAATEDFGGPEGAEFNKRIARAAGELASLIVEESGNVGLEHHHHHH”, “not soluble”.
Consider “MRTLFYSQLMYEAAKRQPHPHRCADGRTIADLSAQDLKKLNIAQLFFVAGRESEASYGDAYHRYHLYGAKQFEEYARKHLTHLFSEKEIVLYSRCIEDRIGDRFDETAEGYLIHLSHMIDLMRCKSPVEVFIGHSRGVSGIVPTLIQLFGREDGLDIMHYARSLFAATGEAVPYISSSEWPHLGIESDRVERALKIVGPLEVEGQEADAKKTAQAGFSVDGCYGALVKVDTPDWYHQVKEKEDYDVDEVIALPPQITIREEPPKANESFLLSLLRHVFWCCPSNQKRDDENTDVLEKKAQL”, for which the “soluble on expression in E. coli” value was “not soluble”.
As to “MRTLLITGPGGSGRTTVAAATALRASRTGTRTLVLSADRTDTLGAALGVPTGGAPVEAAPGLTAWRPDAADRFRADLTAFQDRAATALDFLGAARLDAEELTPLPGAEELALLRALRDAALSEAYDLLVVDLPPAPQALALLALPEELRRYLRRLLPPERQAARALRPVLGRLAGVPMPADWLYETAARWDVELAAVEAVVEDRATTVRLVAEPGPAGADAVRAAATGFALRAVRIDTLIANRLLPEEADDAWSAGLAAQQRKFLEEWRGEYRLHELPHLGHDPRGADDLAALAVPGVNDAPGPVEWSVADRLADDGVLVWHIPLPGAIRDELDLLRRGDELVVTAGQFRRIVPLPSALRRCTVAGAALREGELRIRFAPDPDLWPRERLEHHHHHH”, the “soluble on expression in E. coli” value is “soluble”.
With “MRTNVRLLAYRLLRKYEKEKFISREDVDSVLSFLDDRDRRFFKELVWGVVRKEELLDWYINQLLKKKDIPPAVRVALRMGAYQLLFMNSVPDYAAVSETVKLVKNENFKKLVNAVLRRLRTVPEPKELHLVYSHPEWIVNYWRSFLPEEAVLRIMKWNQEPLPVMLRVNSLAATKEEVIKILAEEGTEAVPGKHAPFSLIVRKLGVPMNDSRVINDGLASVQGESSQLVPFFMELRPGLRVLDTCAAPGGKTTAIAELMKDQGKILAVDISREKIQLVEKHAKRLKLSSIETKIADAERLTEYVQDTFDRVLVDAPCTSLGTARNHPEVLRRVNKEDFEKFSEIQLRMVQQAWQLLEKGGILLYSTCTVTKEENTEVVKRFVYEQKDVEVIDIRDKMKEFEVEGIWDGYGFLMLPDETITPFYISVLRKMG” the entry was “soluble”.

For the origin of these results see the DeepSol protein solubility set.
